The stoichiometry N is the number of molecules, sites or subunits per partner or assembly.

The target in series [1] is HopQ1 fused to ECFP or EYFP, expressed in N. benthamiana (Pseudomonas savastanoi pv. phaseolicola 1448A (former Pseudomonas syringae pv. phaseolicola 1448A)) (UniProt Q48BD8). In words: FRET or BRET; FLIM-FRET in nuclei of N. benthamiana leaf cells; donor fused to ECFP, acceptor fused to EYFP, transiently co-expressed; eight to ten nuclei per combination. On the technique in general: Bioluminescence resonance energy transfer reports proximity on the nanometre scale.

Series [2] deals with Recombinant HopQ1 with a C-terminal 6 × His epitope (Pseudomonas savastanoi pv. phaseolicola 1448A (former Pseudomonas syringae pv. phaseolicola 1448A)) (UniProt Q48BD8). In words: SEC-MALS; native (non-reducing) conditions; Superdex 200 10/300GL, 100 mM Tris-HCl, 150 mM NaCl, pH 8.0, 4 °C; 0.4 mg protein per run. A general note: In gel filtration, larger molecules generally elute earlier.

Series [3] shares this target. In words: SEC; gel filtration on Superdex 200, reducing conditions with chelating agent (1 mM EDTA).
Series [4] deals with the molecule itself. Kind of series: SEC; gel filtration on Superdex 200 of the calcium-site mutant; 'all the conditions tested' (not listed for the mutant).
Series [5] concerns the molecule itself. In words: SEC; gel filtration on Superdex 200, reducing conditions with chelating agent (1 mM EDTA).

Several values for one entry are separate records, joined by “and”; a condition that tells them apart may be missing. Identical values can stand only once.

For Nt14-3-3a-ECFP (natural protein), in series [1], the FRET efficiency stood at 14.2%.

Take “Recombinant HopQ1 with a C-terminal 6 × His epitope (from UniProt Q48BD8 1-447) (natural protein)”: the stoichiometry N is 2 and 3 in series [2]; 2 in series [3].

B1: HopQ1-D107A_D108A (recombinant, 6 × His) (natural protein)
chain: MHRPITAGHTTSRLILDQLKQISRTPSESSVQSALSQQASMSSPVLERSKSAPALLTAAQRTMLAQVGACNSHLTSDENMAINELRLHKPRLPKDTWFFTDPNKDPAAVVTYTLGKQLQAEGFVHITDVVATLGDAEVRSQRAEMAKGVFNKLGLHDVHVSRGRDYAMNSLQSKEHAKFLLEGHALRAGPGEIHRDSLQDMSRRLARAPHGVGIVVIAGMSDINALITTCPDMVRERVDDITIMGGVEPLKDADGFVQPDARAYNNATDMDAARSLYRKAQELGIPLRIVTKEAAYKTAVSPSFYEGIAGSGHPVGHYLRDVQKSALKGLWEGIQAGLLPGLDDSWFFRTFMPNAQIEAAQLDKNKESSFEDIWPKVTKLNLYDPLTLLASVPGAAKLLFKPKAIHTEGFGVVEQVGPDDVTHPEKAKLLMSALAKSALVQSTVAPD
notes: HopQ1 of Pseudomonas savastanoi pv. phaseolicola 1448A, GenBank AAZ37975.1, with D107A and D108A; source: E. coli BL21 Rosetta, purified
As for B1, in series [4], the “stoichiometry N” value is 2.

B2: RihA, a pyrimidine-specific ribonucleoside hydrolase from E. coli K-12 (enzyme, UniProt P41409 1-311, looked up)
chain: MALPILLDCDPGHDDAIAIVLALASPELDVKAITSSAGNQTPEKTLRNVLRMLTLLNRTDIPVAGGAVKPLMRELIIADNVHGESGLDGPALPEPTFAPQNCTAVELMAKTLRESAEPVTIVSTGPQTNVALLLNSHPELHSKIARIVIMGGAMGLGNWTPAAEFNIYVDPEAAEIVFQSGIPVVMAGLDVTHKAQIHVEDTERFRAIGNPVSTIVAELLDFFLEYHKDEKWGFVGAPLHDPCTIAWLLKPELFTSVERWVGVETQGKYTQGMTVVDYYYLTGNKPNATVMVDVDRQGFVDLLADRLKFYA
notes: RihA (also known as YbeK), pyrimidine-specific ribonucleoside hydrolase of E. coli K-12; also called YbeK; source: E. coli BL21 Rosetta, purified
Consider B2, for which the “stoichiometry N” value in series [5] was 4.

The record behind these values is PMC11685791, “Noncanonical calcium binding motif controls folding of HopQ1, a Pseudomonas syringae type III secretion effector, in a pH-dependent manner” (Scientific Reports, 2024).
